The values below come from the RNAGym collection of RNA variant scans (doi:10.7554/elife.80360).

Sequences and labels used below:
B1: HDV Ribozyme (parent)
chain: GGCCGGCAUGGUCCCAGCCUCCUCGCUGGCGCCGGCUGGGCAACAUUCCGAGGGGACCGUCCCCUCGGUAAUGGCGAAUGGGACCCA

The variants in this data set derive from B1. In words: self-cleavage, relative activity (ratio to wild type); higher = more cleavage; co-transcriptional.
With C66A G67U, the self-cleavage was 0.878.

As for C66A G67C, the self-cleavage turned out to be 0.845.

As for U69A G80C, the self-cleavage is 0.38.

Turning to U69A G80U, the self-cleavage came out at 0.141.

Regarding G67C C84A, the self-cleavage turned out to be 0.682.

Take G67C G80A: the self-cleavage was determined as 0.464.

With G67C G80U, the self-cleavage was determined as 0.223.

Turning to G67C G80C, the self-cleavage came out at 0.189.

U65G U79G: the self-cleavage was 1.2.

In the case of C66G A78C, the self-cleavage is 0.148.

Consider C66G A78U, for which the self-cleavage came out at 0.48.

Turning to C66G A78G, the self-cleavage worked out at 0.875.

C66G G73U: the self-cleavage came to 0.389.

For the variant C66G G73A, the self-cleavage was 0.434.

As for G68A C85A, the self-cleavage was determined as 0.831.

For G68A A71U, the self-cleavage came out at 0.867.

Take G68A A71G: the self-cleavage worked out at 0.904.

Turning to C66U C75G, the self-cleavage was 0.141.

Take C66U C75A: the self-cleavage came out at 0.176.

Take C66U C75U: the self-cleavage is 0.173.

For G68C A70C, the self-cleavage is 0.63.

With G68C A70G, the self-cleavage came out at 0.639.

Regarding G67U U69C, the self-cleavage is 0.906.

As to G67U U69G, the self-cleavage came out at 1.03.

C66G G76C: the self-cleavage is 0.73.

On to C66G G76U, for which the self-cleavage worked out at 0.88.

For the variant C66G G67U, the self-cleavage was 0.831.

Regarding C66G G67C, the self-cleavage is 1.01.

As to G67U A71C, the self-cleavage was found to be 0.892.

As for G67U A71G, the self-cleavage was determined as 1.12.

In the case of C66A C84A, the self-cleavage was found to be 0.831.

For the variant C66A C84U, the self-cleavage was found to be 0.696.

With G67C A87C, the self-cleavage amounted to 0.84.

For G67A U79A, the self-cleavage came out at 0.982.

Take G67A U79C: the self-cleavage was 0.509.

For G68C A87G, the self-cleavage came out at 0.948.

On to G68C A87C, for which the self-cleavage turned out to be 0.73.

Regarding G67A G68A, the self-cleavage came to 0.946.

For the variant G67A G68U, the self-cleavage was 0.79.

Regarding U69C C86A, the self-cleavage was found to be 0.906.

As for U69C C86G, the self-cleavage came out at 1.05.

Turning to U69C C86U, the self-cleavage was 0.727.

Take C66G A83C: the self-cleavage came out at 0.178.

G68A A83U: the self-cleavage was found to be 0.424.

For G67U A77U, the self-cleavage worked out at 0.681.

On to G67U A77G, for which the self-cleavage came to 0.489.

On to G68A G80A, for which the self-cleavage worked out at 0.367.

On to G68A G80U, for which the self-cleavage stood at 0.251.

On to G68A G80C, for which the self-cleavage worked out at 0.286.

For the variant G68C C75A, the self-cleavage was 0.0346.

With G68C C75G, the self-cleavage amounted to 0.128.

Regarding G68U G76A, the self-cleavage is 0.953.

Regarding U69C G73U, the self-cleavage is 0.489.

For the variant U69C G73C, the self-cleavage was determined as 0.633.

Take G67C G82A: the self-cleavage turned out to be 0.108.

In the case of G67C G82U, the self-cleavage was determined as 0.185.

For the variant G67C G82C, the self-cleavage stood at 0.289.

For G68A G76A, the self-cleavage came out at 1.

Regarding G68U C75G, the self-cleavage was 0.228.

For G68U C75U, the self-cleavage was 0.225.

Take G68U A78G: the self-cleavage is 0.639.

Take G68U A78U: the self-cleavage is 0.237.

Turning to C66U A83U, the self-cleavage turned out to be 0.43.

As for U69A A71G, the self-cleavage was 0.731.

With C66G U79A, the self-cleavage was found to be 0.808.

As for U69C G74U, the self-cleavage is 0.575.

As for U69C G74A, the self-cleavage was 0.554.

Regarding C66A U72A, the self-cleavage was 0.608.

On to C66A U72G, for which the self-cleavage was found to be 0.332.

On to U69A G76C, for which the self-cleavage came out at 0.906.

As for U69A G76A, the self-cleavage is 0.727.

Regarding U69A G76U, the self-cleavage is 0.95.

C66U A77G: the self-cleavage turned out to be 0.489.

In the case of G68U G82A, the self-cleavage came out at 0.153.

For G68U G82U, the self-cleavage worked out at 0.265.

Turning to C66A A87G, the self-cleavage worked out at 0.898.

For C66A A83C, the self-cleavage amounted to 0.527.

On to C66A A83G, for which the self-cleavage was determined as 0.641.

Regarding C66A A83U, the self-cleavage was found to be 0.225.

For the variant G67U G73A, the self-cleavage was 0.451.

Regarding G67U G73U, the self-cleavage was 0.263.

With G68U G73A, the self-cleavage amounted to 0.481.

For the variant G68C C86U, the self-cleavage came to 0.997.

For G68C C86G, the self-cleavage is 1.07.

Take G68C C86A: the self-cleavage was determined as 1.1.

Turning to C66A G68C, the self-cleavage was determined as 0.453.

Consider C66A G68A, for which the self-cleavage amounted to 0.805.

Take G67C A71C: the self-cleavage was 0.657.

Regarding G68C G73C, the self-cleavage is 0.0511.

Consider G68C G73A, for which the self-cleavage was determined as 0.193.

In the case of G68C G73U, the self-cleavage is 0.158.

For G68U G80A, the self-cleavage was found to be 0.171.

For the variant U69A C86U, the self-cleavage came to 0.739.

U69A C86G: the self-cleavage came to 1.09.

U69A C86A: the self-cleavage is 1.

As to C66A G76U, the self-cleavage stood at 0.981.

C66A G76C: the self-cleavage is 0.976.

Turning to U69A G81C, the self-cleavage is 0.325.

Turning to C66A U79G, the self-cleavage was 0.804.

In the case of U69A G73U, the self-cleavage stood at 0.494.

Consider U69A G73C, for which the self-cleavage was determined as 0.264.

As to G67U A83C, the self-cleavage stood at 0.635.

For the variant G67U A83U, the self-cleavage turned out to be 0.469.

For C66A A78U, the self-cleavage was 0.198.

For the variant C66A A78G, the self-cleavage was determined as 0.538.

Regarding C66G G68A, the self-cleavage stood at 0.695.

On to U69A U79G, for which the self-cleavage was 0.831.

Turning to U69A U79C, the self-cleavage was determined as 0.499.

On to C66A G82A, for which the self-cleavage stood at 0.356.

As to G67C A77U, the self-cleavage was found to be 0.707.

For G67A U72G, the self-cleavage turned out to be 0.383.

For the variant U69C A77U, the self-cleavage is 0.598.

U69C A77C: the self-cleavage amounted to 0.612.

On to G67C A78C, for which the self-cleavage worked out at 0.0639.

In the case of G67C A78G, the self-cleavage amounted to 0.492.

On to G68A C75U, for which the self-cleavage came out at 0.0615.

For the variant U69A A77U, the self-cleavage stood at 0.591.

Consider G68C U69A, for which the self-cleavage turned out to be 0.739.

In the case of G68C U69C, the self-cleavage stood at 0.697.

Turning to G68C U69G, the self-cleavage worked out at 1.21.

For U69C A71G, the self-cleavage came out at 0.974.

In the case of U69C A87C, the self-cleavage stood at 1.18.

As for U69C A87U, the self-cleavage was found to be 0.993.

Regarding G68C A71U, the self-cleavage came to 0.68.

On to C66U G74C, for which the self-cleavage is 0.363.

For the variant U69C C85G, the self-cleavage worked out at 0.988.

On to U69C C85A, for which the self-cleavage was determined as 1.14.

Consider U69C A83G, for which the self-cleavage came out at 0.755.

U69C A83U: the self-cleavage worked out at 0.431.

As to G67U C85U, the self-cleavage was found to be 0.972.

G68C G80U: the self-cleavage was 0.322.

As to G68C G80C, the self-cleavage came out at 0.208.

Regarding C66U U72G, the self-cleavage turned out to be 0.582.

For the variant G67A G81C, the self-cleavage came to 0.117.

Regarding G67A G81U, the self-cleavage stood at 0.101.

With G67A C75A, the self-cleavage turned out to be 0.185.

For the variant G67A C75U, the self-cleavage was 0.189.

Regarding U69A A83G, the self-cleavage is 0.712.

With G67C G81U, the self-cleavage was 0.157.

Turning to G67C G81A, the self-cleavage was 0.369.

As for G67C G81C, the self-cleavage came out at 0.286.

Turning to U69A A78C, the self-cleavage is 0.208.

For U69A A78U, the self-cleavage stood at 0.222.

For the variant G67A G73A, the self-cleavage worked out at 0.492.

Regarding G68C G81C, the self-cleavage was found to be 0.0594.

On to G67U G68A, for which the self-cleavage turned out to be 0.972.

On to G67U G68C, for which the self-cleavage worked out at 0.962.

With G67U G68U, the self-cleavage worked out at 0.76.

Turning to G68U A71U, the self-cleavage was found to be 1.01.

With G68U A71C, the self-cleavage stood at 0.973.

With G68U A71G, the self-cleavage is 1.04.

Regarding C66A A71C, the self-cleavage was determined as 0.866.

Consider C66A A71G, for which the self-cleavage stood at 0.782.

For the variant C66A C75U, the self-cleavage was 0.292.

For the variant C66A C75G, the self-cleavage was determined as 0.181.

Regarding G68C C85G, the self-cleavage was 0.733.

On to G68C A83G, for which the self-cleavage came to 0.356.

For the variant G67U U79C, the self-cleavage is 0.231.

As for G67U U79A, the self-cleavage was 0.601.

Turning to G67U U79G, the self-cleavage stood at 0.516.

For G67U G76C, the self-cleavage turned out to be 1.1.

Regarding G67U G76A, the self-cleavage turned out to be 1.18.

Consider G67U G76U, for which the self-cleavage was 1.08.

As to G67A A71U, the self-cleavage came to 0.725.

C66A G80A: the self-cleavage was 0.54.

Turning to C66A G80U, the self-cleavage came out at 0.304.

G68A A78G: the self-cleavage stood at 0.727.
